Test results reported in publication PMC9141747.

Assays:
[1] = biological target: T1, H-NS (Escherichia coli K1 (RS218?)) (UniProt P0ACF8); experiment: EMSA; details: 10 mM Tris pH 7.5, 1 mM EDTA, 100 mM KCl, 0.1 mM DTT, 5% glycerol, 0.01 mg/mL BSA
T1 sequence: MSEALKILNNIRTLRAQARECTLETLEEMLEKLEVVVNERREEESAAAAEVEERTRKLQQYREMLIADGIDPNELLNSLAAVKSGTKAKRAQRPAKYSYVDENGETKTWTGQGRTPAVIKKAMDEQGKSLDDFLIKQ

[2] = test system: T2, YbdO (Escherichia coli K1 (RS218?)), ORF:f8d494c4; experiment: EMSA; details: 10 mM Tris pH 7.5, 1 mM EDTA, 100 mM KCl, 0.1 mM DTT, 5% glycerol, 0.01 mg/mL BSA; […]
T2 sequence: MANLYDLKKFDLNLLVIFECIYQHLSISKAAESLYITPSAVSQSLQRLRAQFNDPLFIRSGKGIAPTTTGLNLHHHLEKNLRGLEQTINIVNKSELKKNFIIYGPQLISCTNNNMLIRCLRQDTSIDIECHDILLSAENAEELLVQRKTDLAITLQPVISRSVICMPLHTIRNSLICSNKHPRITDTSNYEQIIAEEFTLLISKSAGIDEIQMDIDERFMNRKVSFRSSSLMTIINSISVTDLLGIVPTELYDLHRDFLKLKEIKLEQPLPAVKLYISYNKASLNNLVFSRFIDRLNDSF

ACATACTCCGTTGTATTGTCTCTTCCATAAATCATTCACTTGATCAATAATGTTGTTGTATTTATATGTATTATGTTTTTCTGCTTAACTTTGGATTAAGATTTTCTAAAATAGCATAGCTGTCAGGTGGGTTACGAGCAATTCATGCGTTTTTAGGATGGTTGAAAAGCAGAGAGAGATTTCAACCATCGATGAATTATATTCTATTTATTCCCCATAATGATATTAAGTGTTTTCTGATCGGGTAATCCGACGGCTTGTTGCAGGGTA (double strand) [PybdO]
binding ([1]; […]): binds

GCGGCCCCAGGCCGAGCCAGTTTACCCGCTCTGAGACCTGCGCCAGCTGGCAGGTCAGGCCAATCCGCGCCGGATGCGGTGTATCGCTTGCCACCGCAACATCCACATTGATGACCATCTCACCGTGCCCATCAATCCGGTAGG (double strand) [lacZ fragment]
binding ([1]; 20 ng DNA in 20 uL, 25 C, 30 min, native 8% PAGE in 0.5x TBE, GelRed stain): no binding | binding [2]: no binding

TTTCCTGAGAAATTAACTCTGCATTCTAAAACGGCCAGTTTTCTGAAATTACCAGAAGACCGAATACATTCATGCCTGAAGAATGGATTAGAAGAAACGAGACGGAAATAGATCTATTTATCCCTGCGGAAATAATTTCTGCTGAAATTTTTTTGCGGCTATTAAAAAGGTCAAACCGTCTGAGTAAATTTTATCCAGTTACAAACAAGTATTACCTCCAGTGTATTGGTAGCTGTTAAGCCAAGGGCGGTAGCGTACCTGAAGAGATTAGGATCACATCATCAAATGG (double strand) [PkpsM]
binding [2]: binds
